The values that follow come from article PMC8402216.

This data set deals with T1, ErdR (CrbR), 6His-ErdR (Pseudomonas putida KT2440) (UniProt Q88MD8).
T1 sequence: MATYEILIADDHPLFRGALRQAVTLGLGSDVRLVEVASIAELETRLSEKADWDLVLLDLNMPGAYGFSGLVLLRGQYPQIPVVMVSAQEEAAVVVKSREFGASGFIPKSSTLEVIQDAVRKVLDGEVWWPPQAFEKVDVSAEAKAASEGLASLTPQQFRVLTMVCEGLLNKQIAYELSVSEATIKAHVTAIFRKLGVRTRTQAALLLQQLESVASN
Put plainly: EMSA. To be noted: 10 mM Tris-HCl pH 8, 2 mM MgCl2, 1 mM DTT, 10% glycerol, 12 ng/uL sheared salmon sperm DNA, 2 mM acetyl phosphate when needed; 2.5 ng DNA in 10 uL, 20 min at …. In general terms: In EMSA bound probe runs differently from free probe, usually more slowly.

Take “AATCGCCTTGCCGTTGCTGGCGAGGTGAATTTTATGGCGCTGGCCAAGGCCGAAACAGTGGGTGTTTTGATAAAGTGTTTTGACAGAATCTGTAACAATCCTGTGGCAAACCCCTCGTTTTTTCGTCGGCAAGGCTGTAA (double strand) [acsA-I (1) promoter]”: the binding result was “no binding”. Same read-out and setting: the result for “AGCAACGGCAAGGCGATTAACAACTGGTAACAGCCCCCACGAAGGCAAGCGTTAATCTCCATCTAATCCCGATAGTTAAAACTAGCAATACTCGCGGCGCCATAAGCGCCGCGTGCCCCCTCACGACCTTAGACAGGTAA (double strand) [acsA-I (2) promoter]” reads “no binding”; that for “CGCGAACGGGTCATCACTTTGTTACGCAATCGGTAAAACACCGTTGCATCTAAGACTAAGGTCGTCTGGTTGGCGTCCATCGGCAGCATAAAGTAAGGGTGTGGGTTCCATCCCGTATCTGTGCTGCTAGGACAAAAACA (double strand) [yjcH (actP-I) promoter]”, “binds”. Take “TAGGCGTCCTTTTTGCTCATGAAACTGACCGTATCGCTATGCCGAACTATATATATCTATATATAGGTACCGGCCATGTTGTTCTCTGCCTCCATGGTCGGCTTGCGGCGGGGTGGTGCCCATTGGACGTAAGTCTATGA (double strand) [pp_0354 promoter]”: the binding result is “binds” and the binding signal entry is given as “binds”.
